From patent US20120172293A1 (Takeda / Millennium, published 2012)
Non-standard residues stand in square brackets, D forms with d. No end group written: not given here. Arg(Me) = CNC(=N)NCCC[C@H](N)C(=O)O; Ala(cPr) = N[C@@H](CC1CC1)C(=O)O; 4Pal = N[C@@H](Cc1ccncc1)C(=O)O; Cha = N[C@@H](CC1CCCCC1)C(=O)O; dCha = N[C@H](CC1CCCCC1)C(=O)O; Phg = N[C@H](C(=O)O)c1ccccc1; 4Amb = NCc1ccc(C(=O)O)cc1; Nle = CCCC[C@H](N)C(=O)O; Aib = CC(C)(N)C(=O)O

T1: human Y2 receptor (human, UniProt P49146 1-381)
T1 sequence (looked up): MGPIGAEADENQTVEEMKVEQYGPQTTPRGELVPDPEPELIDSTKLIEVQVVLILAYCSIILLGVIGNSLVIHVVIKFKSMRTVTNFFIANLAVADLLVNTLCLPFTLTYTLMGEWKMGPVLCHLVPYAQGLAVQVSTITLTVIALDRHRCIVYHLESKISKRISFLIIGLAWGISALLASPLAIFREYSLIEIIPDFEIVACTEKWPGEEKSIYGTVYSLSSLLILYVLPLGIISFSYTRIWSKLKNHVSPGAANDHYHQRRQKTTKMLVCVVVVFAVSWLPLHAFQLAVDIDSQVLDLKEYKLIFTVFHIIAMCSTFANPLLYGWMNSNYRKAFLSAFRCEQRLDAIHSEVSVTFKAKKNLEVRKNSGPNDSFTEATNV

B1: 4-Aminomethylbenzoyl-[Ala26, Ile28,31, Aib29]-PYY(25-36) (peptide)
peptide: [4Amb]RAYI[Aib]LITRQRY-NH2
modifications: N-terminus assumed
SMILES: CC[C@H](C)[C@H](NC(=O)[C@H](CC(C)C)NC(=O)C(C)(C)NC(=O)[C@@H](NC(=O)[C@H](Cc1ccc(O)cc1)NC(=O)[C@H](C)NC(=O)[C@H](CCCNC(=N)N)NC(=O)c1ccc(CN)cc1)[C@@H](C)CC)C(=O)N[C@H](C(=O)N[C@@H](CCCNC(=N)N)C(=O)N[C@@H](CCC(N)=O)C(=O)N[C@@H](CCCNC(=N)N)C(=O)N[C@@H](Cc1ccc(O)cc1)C(N)=O)[C@@H](C)O
notes: also called compound No. 46
B2: Ac-[D-Phe24, Ala26, Ile28,31]-PYY(24-36) (peptide)
peptide: Ac-[dF]RAYINLITRQRY-NH2
SMILES: CC[C@H](C)[C@H](NC(=O)[C@H](Cc1ccc(O)cc1)NC(=O)[C@H](C)NC(=O)[C@H](CCCNC(=N)N)NC(=O)[C@@H](Cc1ccccc1)NC(C)=O)C(=O)N[C@@H](CC(N)=O)C(=O)N[C@@H](CC(C)C)C(=O)N[C@H](C(=O)N[C@H](C(=O)N[C@@H](CCCNC(=N)N)C(=O)N[C@@H](CCC(N)=O)C(=O)N[C@@H](CCCNC(=N)N)C(=O)N[C@@H](Cc1ccc(O)cc1)C(N)=O)[C@@H](C)O)[C@@H](C)CC
notes: also called compound No. 35
B3: 4-Aminomethylbenzoyl-[Ala26, Ile28,31, Aib30]-PYY(25-36) (peptide)
peptide: [4Amb]RAYIN[Aib]ITRQRY-NH2
modifications: N-terminus assumed
SMILES: CC[C@H](C)[C@H](NC(=O)[C@H](Cc1ccc(O)cc1)NC(=O)[C@H](C)NC(=O)[C@H](CCCNC(=N)N)NC(=O)c1ccc(CN)cc1)C(=O)N[C@@H](CC(N)=O)C(=O)NC(C)(C)C(=O)N[C@H](C(=O)N[C@H](C(=O)N[C@@H](CCCNC(=N)N)C(=O)N[C@@H](CCC(N)=O)C(=O)N[C@@H](CCCNC(=N)N)C(=O)N[C@@H](Cc1ccc(O)cc1)C(N)=O)[C@@H](C)O)[C@@H](C)CC
notes: also called compound No. 47
B4: 4-Aminomethylbenzoyl-[Ala(cPr)26, Ile28,32]-PYY(25-36) (peptide)
peptide: [4Amb]R[Ala(cPr)]YINLITRQRY-NH2
modifications: N-terminus assumed
SMILES: CC[C@H](C)[C@H](NC(=O)[C@H](Cc1ccc(O)cc1)NC(=O)[C@H](CC1CC1)NC(=O)[C@H](CCCNC(=N)N)NC(=O)c1ccc(CN)cc1)C(=O)N[C@@H](CC(N)=O)C(=O)N[C@@H](CC(C)C)C(=O)N[C@H](C(=O)N[C@H](C(=O)N[C@@H](CCCNC(=N)N)C(=O)N[C@@H](CCC(N)=O)C(=O)N[C@@H](CCCNC(=N)N)C(=O)N[C@@H](Cc1ccc(O)cc1)C(N)=O)[C@@H](C)O)[C@@H](C)CC
notes: name prints Ile28,32; also called compound No. 48
B5: 4-Aminomethylbenzoyl-[Ala26, Ile28, Cha31]-PYY(25-36) (peptide)
peptide: [4Amb]RAYINL[Cha]TRQRY-NH2
modifications: N-terminus assumed
SMILES: CC[C@H](C)[C@H](NC(=O)[C@H](Cc1ccc(O)cc1)NC(=O)[C@H](C)NC(=O)[C@H](CCCNC(=N)N)NC(=O)c1ccc(CN)cc1)C(=O)N[C@@H](CC(N)=O)C(=O)N[C@@H](CC(C)C)C(=O)N[C@@H](CC1CCCCC1)C(=O)N[C@H](C(=O)N[C@@H](CCCNC(=N)N)C(=O)N[C@@H](CCC(N)=O)C(=O)N[C@@H](CCCNC(=N)N)C(=O)N[C@@H](Cc1ccc(O)cc1)C(N)=O)[C@@H](C)O
notes: also called compound No. 41
B6: Ac-[D-Cha24, Ala26, Ile28,31]-PYY(24-36) (peptide)
peptide: Ac-[dCha]RAYINLITRQRY-NH2
SMILES: CC[C@H](C)[C@H](NC(=O)[C@H](Cc1ccc(O)cc1)NC(=O)[C@H](C)NC(=O)[C@H](CCCNC(=N)N)NC(=O)[C@@H](CC1CCCCC1)NC(C)=O)C(=O)N[C@@H](CC(N)=O)C(=O)N[C@@H](CC(C)C)C(=O)N[C@H](C(=O)N[C@H](C(=O)N[C@@H](CCCNC(=N)N)C(=O)N[C@@H](CCC(N)=O)C(=O)N[C@@H](CCCNC(=N)N)C(=O)N[C@@H](Cc1ccc(O)cc1)C(N)=O)[C@@H](C)O)[C@@H](C)CC
notes: also called compound No. 37
B7: Ac-[Cha24, Ala26, Ile28,31]-PYY(24-36) (peptide)
peptide: Ac-[Cha]RAYINLITRQRY-NH2
SMILES: CC[C@H](C)[C@H](NC(=O)[C@H](Cc1ccc(O)cc1)NC(=O)[C@H](C)NC(=O)[C@H](CCCNC(=N)N)NC(=O)[C@H](CC1CCCCC1)NC(C)=O)C(=O)N[C@@H](CC(N)=O)C(=O)N[C@@H](CC(C)C)C(=O)N[C@H](C(=O)N[C@H](C(=O)N[C@@H](CCCNC(=N)N)C(=O)N[C@@H](CCC(N)=O)C(=O)N[C@@H](CCCNC(=N)N)C(=O)N[C@@H](Cc1ccc(O)cc1)C(N)=O)[C@@H](C)O)[C@@H](C)CC
notes: also called compound No. 36
B8: 4-Aminomethylbenzoyl-[Ala26, Nle27, Ile28,31]-PYY(25-36) (peptide)
peptide: [4Amb]RA[Nle]INLITRQRY-NH2
modifications: N-terminus assumed
SMILES: CCCC[C@H](NC(=O)[C@H](C)NC(=O)[C@H](CCCNC(=N)N)NC(=O)c1ccc(CN)cc1)C(=O)N[C@H](C(=O)N[C@@H](CC(N)=O)C(=O)N[C@@H](CC(C)C)C(=O)N[C@H](C(=O)N[C@H](C(=O)N[C@@H](CCCNC(=N)N)C(=O)N[C@@H](CCC(N)=O)C(=O)N[C@@H](CCCNC(=N)N)C(=O)N[C@@H](Cc1ccc(O)cc1)C(N)=O)[C@@H](C)O)[C@@H](C)CC)[C@@H](C)CC
notes: also called compound No. 43
B9: 4-Aminomethylbenzoyl-[Ala26, Pya(4)27, Ile28,31]-PYY(25-36) (peptide)
peptide: [4Amb]RA[4Pal]INLITRQRY-NH2
modifications: N-terminus assumed
SMILES: CC[C@H](C)[C@H](NC(=O)[C@H](Cc1ccncc1)NC(=O)[C@H](C)NC(=O)[C@H](CCCNC(=N)N)NC(=O)c1ccc(CN)cc1)C(=O)N[C@@H](CC(N)=O)C(=O)N[C@@H](CC(C)C)C(=O)N[C@H](C(=O)N[C@H](C(=O)N[C@@H](CCCNC(=N)N)C(=O)N[C@@H](CCC(N)=O)C(=O)N[C@@H](CCCNC(=N)N)C(=O)N[C@@H](Cc1ccc(O)cc1)C(N)=O)[C@@H](C)O)[C@@H](C)CC
notes: also called compound No. 44
B10: 4-Aminomethylbenzoyl-[Ala26, Ile28, Nle31]-PYY(25-36) (peptide)
peptide: [4Amb]RAYINL[Nle]TRQRY-NH2
modifications: N-terminus assumed
SMILES: CCCC[C@H](NC(=O)[C@H](CC(C)C)NC(=O)[C@H](CC(N)=O)NC(=O)[C@@H](NC(=O)[C@H](Cc1ccc(O)cc1)NC(=O)[C@H](C)NC(=O)[C@H](CCCNC(=N)N)NC(=O)c1ccc(CN)cc1)[C@@H](C)CC)C(=O)N[C@H](C(=O)N[C@@H](CCCNC(=N)N)C(=O)N[C@@H](CCC(N)=O)C(=O)N[C@@H](CCCNC(=N)N)C(=O)N[C@@H](Cc1ccc(O)cc1)C(N)=O)[C@@H](C)O
notes: also called compound No. 42
B11: 4-Aminomethylbenzoyl-[Lys25, Ala26, Ile28,31]-PYY(25-36) (peptide)
peptide: [4Amb]KAYINLITRQRY-NH2
modifications: N-terminus assumed
SMILES: CC[C@H](C)[C@H](NC(=O)[C@H](Cc1ccc(O)cc1)NC(=O)[C@H](C)NC(=O)[C@H](CCCCN)NC(=O)c1ccc(CN)cc1)C(=O)N[C@@H](CC(N)=O)C(=O)N[C@@H](CC(C)C)C(=O)N[C@H](C(=O)N[C@H](C(=O)N[C@@H](CCCNC(=N)N)C(=O)N[C@@H](CCC(N)=O)C(=O)N[C@@H](CCCNC(=N)N)C(=O)N[C@@H](Cc1ccc(O)cc1)C(N)=O)[C@@H](C)O)[C@@H](C)CC
notes: also called compound No. 49
B12: [D-Ala22, Ala26, Ile28,31, Arg(Me)35]-PYY(22-36) (peptide)
peptide: [dA]SLRAYINLITRQ[Arg(Me)]Y-NH2
modifications: N-terminus assumed
SMILES: CC[C@H](C)[C@H](NC(=O)[C@H](Cc1ccc(O)cc1)NC(=O)[C@H](C)NC(=O)[C@H](CCCNC(=N)N)NC(=O)[C@H](CC(C)C)NC(=O)[C@H](CO)NC(=O)[C@@H](C)N)C(=O)N[C@@H](CC(N)=O)C(=O)N[C@@H](CC(C)C)C(=O)N[C@H](C(=O)N[C@H](C(=O)N[C@@H](CCCNC(=N)N)C(=O)N[C@@H](CCC(N)=O)C(=O)N[C@@H](CCCNC(=N)NC)C(=O)N[C@@H](Cc1ccc(O)cc1)C(N)=O)[C@@H](C)O)[C@@H](C)CC
notes: also called compound No. 3
B13: 4-Aminomethylbenzoyl-[Ala26, Ile28, Phg31]-PYY(25-36) (peptide)
peptide: [4Amb]RAYINL[Phg]TRQRY-NH2
modifications: N-terminus assumed
SMILES: CC[C@H](C)[C@H](NC(=O)[C@H](Cc1ccc(O)cc1)NC(=O)[C@H](C)NC(=O)[C@H](CCCNC(=N)N)NC(=O)c1ccc(CN)cc1)C(=O)N[C@@H](CC(N)=O)C(=O)N[C@@H](CC(C)C)C(=O)N[C@H](C(=O)N[C@H](C(=O)N[C@@H](CCCNC(=N)N)C(=O)N[C@@H](CCC(N)=O)C(=O)N[C@@H](CCCNC(=N)N)C(=O)N[C@@H](Cc1ccc(O)cc1)C(N)=O)[C@@H](C)O)c1ccccc1
notes: also called compound No. 40

Biological target: T1, human Y2 receptor
Assay: cell-based or functional assay

| GBA EC50 Ratio (vs PYY(3-36)), [35S]GTPγS [ratio] | Binder |
| --- | --- |
| 2.1 | RYYASLRAYINLITRQRY-NH2 (also called compound No. 2) [[Ala26, Ile28,31]-PYY(19-36)] |
| 34 | B1 |
| 8.7 | B2 |
| 23 | B3 |
| 4.1 | B4 |
| 8.7 | B5 |
| 4.6 | B6 |
| 13 | B7 |
| 2.3 | B8 |
| 2.6 | B9 |
| 5.7 | B10 |
| 24 | B11 |
| 2.7 | B12 |
| 27 | B13 |

Biological target: T1, human Y2 receptor
Assay: RBA: [125I]-PYY displacement, hY2R/CHO membranes
Method in brief: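 Bound radioligand was collected by filtration on PEI-treated GF/C filters, washed with Tris/MgCl₂/NaCl/CHAPS buffer pH 7.4, and counted by scintillation; IC₅₀ values were calculated.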

| IC50 Ratio (vs PYY(3-36)) [ratio] | Binder |
| --- | --- |
| 4.9 | RYYASLRAYINLITRQRY-NH2 (also called compound No. 2) [[Ala26, Ile28,31]-PYY(19-36)] |
| 87 | B1 |
| 14 | B2 |
| 49 | B3 |
| 8.1 | B4 |
| 15 | B5 |
| 7.6 | B6 |
| 17 | B7 |
| 4.6 | B8 |
| 3.8 | B9 |
| 10 | B10 |
| 34 | B11 |
| 6 | B12 |
| 71 | B13 |
